Here are results for 2 molecules from patent US9212226B2, “Amino acid sequences directed against CXCR4 and other GPCRs and compounds comprising the same” (Ablynx N.V., priority 2008, dated 2015).

Holding throughout (assay type): cell-based
One test concerns the target T1, CXCR3 (Homo sapiens, UniProt P49682).
T1 sequence (P49682 1-368): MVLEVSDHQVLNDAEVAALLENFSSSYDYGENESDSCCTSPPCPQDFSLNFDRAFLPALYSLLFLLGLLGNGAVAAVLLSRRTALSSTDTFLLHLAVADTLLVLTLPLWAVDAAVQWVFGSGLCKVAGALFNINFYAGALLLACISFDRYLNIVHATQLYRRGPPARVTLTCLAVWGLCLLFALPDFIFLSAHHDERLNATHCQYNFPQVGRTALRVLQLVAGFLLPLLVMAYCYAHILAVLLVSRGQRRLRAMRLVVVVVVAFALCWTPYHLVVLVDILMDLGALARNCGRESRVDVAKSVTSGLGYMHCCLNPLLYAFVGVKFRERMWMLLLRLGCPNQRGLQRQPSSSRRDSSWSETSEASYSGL
Description: CRE/β-galactosidase reporter gene selectivity screen, CXCR3. Particulars: up to 2.5, forskolin 3 μM, agonist at 50-80% Emax. How it is done: (§1) Data are shown as means±S.E.M. (n=2-3).
(§2) HEK293T cells were maintained at 37° C. in a humidified 5% CO2, 95% air atmosphere in Dulbecco's modified Eagle's medium (DMEM) containing 2 mM L-glutamine, 50 IU/ml penicillin, 50 μg/ml streptomycin, and 10% (v/v) fetal calf serum. Jurkat cells were cultured in a humidified 5% CO2, 95% air atmosphere in a 1:1 mixture of Dulbecco's modified Eagle's medium (DMEM) and Ham's F12 medium containing 2 mM L-glutamine, 50 IU/ml penicillin, 50 μg/ml streptomycin, and 10% (v/v) fetal calf serum. […] [^125 I]-Labelling— Radiolabeling of Nanobodies with ^125I was performed using the Iodo-gen method (Pierce, Rockford, Ill.) according to the manufacturer's protocol. ^125I-labeled Nanobodies was separated from free iodine (>99%) using a Sephadex G-25 gel filtration column (Amersham Biosciences, Piscataway, N.J.). […] Competition Binding Assays— Membranes from HEK293T cells transiently expressing CXCR3 or CXCR4 were prepared 48 h after transfection as follows. Cells were washed and scraped from the cell culture dishes with ice-cold PBS containing 1 mm EDTA. The scraped cells were pelleted at 1500×g for 10 min at 4° C. […] The total protein was determined using a Bradford assay (Bio-Rad). […] Plates were counted by liquid scintillation. […] The accumulated inositol phosphates were isolated by anion exchange chromatography and counted by liquid scintillation. […]
On the technique in general: Reporter assays use an easily measured gene product as a stand-in for the process of interest.

For another test, the target named is CXCR6 (Homo sapiens, UniProt O00574). Description: CRE/β-galactosidase reporter gene selectivity screen, CXCR6. The settings on record: up to 2.5, forskolin 3 μM, agonist at 50-80% Emax. How it is done:
as §1, §2

Another test has as its target T2, CCR7 (Homo sapiens, UniProt P32248).
T2 sequence (P32248 25-378): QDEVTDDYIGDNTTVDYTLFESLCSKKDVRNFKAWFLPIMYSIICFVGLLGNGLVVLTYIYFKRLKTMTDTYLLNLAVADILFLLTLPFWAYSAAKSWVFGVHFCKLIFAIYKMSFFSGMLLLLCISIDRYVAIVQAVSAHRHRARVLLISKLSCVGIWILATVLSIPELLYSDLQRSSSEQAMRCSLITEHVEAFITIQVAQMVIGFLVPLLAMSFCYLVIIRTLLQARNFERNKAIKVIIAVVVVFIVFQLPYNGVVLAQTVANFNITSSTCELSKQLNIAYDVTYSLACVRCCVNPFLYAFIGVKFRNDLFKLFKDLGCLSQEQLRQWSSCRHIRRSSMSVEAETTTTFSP
Description: CRE/β-galactosidase reporter gene selectivity screen, CCR7. The settings on record: up to 2.5, forskolin 3 μM, agonist at 50-80% Emax.

Test [1] deals with Jurkat cells endogenously expressing CXCR4. Nature of the test: Chemotaxis assay (ChemoTx plates) with Jurkat cells towards CXCL12. As to the method:
HEK293T cells were maintained at 37° C. in a humidified 5% CO2, 95% air atmosphere in Dulbecco's modified Eagle's medium (DMEM) containing 2 mM L-glutamine, 50 IU/ml penicillin, 50 μg/ml streptomycin, and 10% (v/v) fetal calf serum. Jurkat cells were cultured in a humidified 5% CO2, 95% air atmosphere in a 1:1 mixture of Dulbecco's modified Eagle's medium (DMEM) and Ham's F12 medium containing 2 mM L-glutamine, 50 IU/ml penicillin, 50 μg/ml streptomycin, and 10% (v/v) fetal calf serum. […] [^125 I]-Labelling— Radiolabeling of Nanobodies with ^125I was performed using the Iodo-gen method (Pierce, Rockford, Ill.) according to the manufacturer's protocol. ^125I-labeled Nanobodies was separated from free iodine (>99%) using a Sephadex G-25 gel filtration column (Amersham Biosciences, Piscataway, N.J.). […] Competition Binding Assays— Membranes from HEK293T cells transiently expressing CXCR3 or CXCR4 were prepared 48 h after transfection as follows. Cells were washed and scraped from the cell culture dishes with ice-cold PBS containing 1 mm EDTA. The scraped cells were pelleted at 1500×g for 10 min at 4° C. The pellet was washed and then resuspended in ice-cold membrane buffer (15 mM Tris, pH 7.5, 1 mM EGTA, 0.3 mM EDTA, and 2 mM MgCl2). The cell suspension was homogenized by 10 strokes at 1200 rpm using a Teflon-glass homogenizer and rotor and further subjected to three freeze-thaw cycles using liquid nitrogen. Membranes were separated by centrifugation at 40,000 g for 25 min at 4° C. The membrane pellet was washed and resuspended in ice-cold Tris-sucrose buffer (20 mM Tris, pH 7.4, and 250 mM sucrose) and frozen in liquid nitrogen. The total protein was determined using a Bradford assay (Bio-Rad). Periplasmas (1:10) or ligands were pre-incubated with membranes in binding buffer (50 mM HEPES (pH 7.4), 1 mM CaCl2, 5 mM MgCl2, 100 mM NaCl, 0.5% bovine serum albumin) supplemented with 0.5% BSA for 1 h at 22° C. before the addition of [^125I]-CXCL12 (40 pM) or [^125I]-238D2 (3 nM) or [^125I]-238D4 (3 nM) for additional 2 h at 22° C. […] Membranes were then harvested over polyethylenimine (0.5%)-treated Whatman GF/C filter plates and washed three times with ice cold binding buffer containing 500 mM NaCl. Plates were counted by liquid scintillation. Inositol Phosphate Accumulation Assay— 24 hours post transfection with pcDNA3.1-CXCR4 and pcDNA1-HA-mG {alpha} qi5 (see Verzijl et al, 2008 supra), 250.000 cells were seeded into 24-wells plates and labelled overnight using inositol-free minimal essential medium supplemented with 1 μCi myo-[2-^3H]-inositol. The next day, the cells were washed once to remove not incorporated myo-[2-^3H]-inositol. […] In agonist experiments, the cells were directly stimulated with test compounds and LiCl (10 mM) in assay buffer for 2 h at 37° C. The stimulation was stopped by aspirating the stimulation medium and adding ice-cold 10 mM formic acid. The accumulated inositol phosphates were isolated by anion exchange chromatography and counted by liquid scintillation. CRE Reporter Gene Assay— HEK239T cells were transfected with pCRE/β-galactosidase (Chen W, Shields T S, Stork P J S, Cone R D (1995) Anal Biochem 226:349-354) and plasmids (pcDEF3 or pcDNA3.1) encoding the indicated receptors. 40,000 transfected cells per well were seeded into 96 well plates and grown in DMEM supplemented with 10% fetal calf serum. The medium was replaced 32 h after transfection by serum-free DMEM supplemented with 0.5% bovine serum albumin and ligands as indicated. Following 16 h of ligand incubation, the medium was removed, the cells were lysed in 100 μl of assay buffer (100 mM sodium phosphate buffer at pH 8.0, 4 mM 2-nitrophenol-β-D-pyranoside, 0.5% Triton X-100, 2 mM MgSO4, 0.1 mM MnCl2, and 40 mM β-mercaptoethanol) and incubated at room temperature. […]

Setting [2] is: Jurkat/0.3 nM CXCL12, monovalent Nanobodies, mean ± S.E.M.

“Also recorded” adds a separate entry of the source.

Sequence of CXCR6 (O00574 whole entry, species assumed): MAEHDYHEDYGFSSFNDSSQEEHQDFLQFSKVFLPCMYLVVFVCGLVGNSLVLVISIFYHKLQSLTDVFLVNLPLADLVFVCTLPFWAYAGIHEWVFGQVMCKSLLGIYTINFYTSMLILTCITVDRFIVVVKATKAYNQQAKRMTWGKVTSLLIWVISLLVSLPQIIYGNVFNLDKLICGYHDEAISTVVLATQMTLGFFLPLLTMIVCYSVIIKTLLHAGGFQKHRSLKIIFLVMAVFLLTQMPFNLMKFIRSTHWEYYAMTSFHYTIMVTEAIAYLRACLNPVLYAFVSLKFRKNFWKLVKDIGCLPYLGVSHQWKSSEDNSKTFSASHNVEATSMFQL

B1: 238D2: Nanobody (VHH) raised against human CXCR4, SEQ ID NO: 238 (protein)
VHH: EVQLVESGGGLVQTGGSLRLSCAASGFTFSSYAMSWVRQAPGKGLEWVSGIKSSGDSTRYAGSVKGRFTISRDNAKNMLYLQMYSLKPEDTAVYYCAKSRVSRTGLYTYDNRGQGTQVTVSS
modifications: Nanobody, Nanobody constructs or fragments thereof
Consider B1, for which the “effect on agonist-induced response at CXCR3” value with CXCR3 is “do not act as agonists or antagonists; also recorded: do not alter”. In the test with CXCR6, the “effect on agonist-induced response at CXCR6” value is given as “do not act as agonists or antagonists; also recorded: do not alter”. Besides, in the test with CCR7, the “effect on agonist-induced response at CCR7” value was “do not act as agonists or antagonists; also recorded: do not alter”. In test [1] (setting [2]), the “Imax (%), Chemotaxis” value is 106 ± 2% and the “pKi or pIC50, Chemotaxis” value came out at 8.33 ± 0.16.

B2: 238D4: Nanobody (VHH) raised against human CXCR4, SEQ ID NO: 239 (protein)
VHH: EVQLMESGGGLVQAGGSLRLSCAASGRTFNNYAMGWFRRAPGKEREFVAAITRSGVRSGVSAIYGDSVKDRFTISRDNAKNTLYLQMNSLKPEDTAVYTCAASAIGSGALRRFEYDYSGQGTQVTVSS
modifications: Nanobody, Nanobody constructs or fragments thereof
As for B2, the “effect on agonist-induced response at CXCR3” value in the test with CXCR3 is reported as “do not act as agonists or antagonists; also recorded: do not alter”. Besides, the “effect on agonist-induced response at CXCR6” value with CXCR6 was “do not act as agonists or antagonists; also recorded: do not alter”. Further, in the test with CCR7, the “effect on agonist-induced response at CCR7” value is “do not act as agonists or antagonists; also recorded: do not alter”. For the same molecule, the “inhibition of migration of Jurkat cells towards CXCL12” value in test [1] (300 pM CXCL12) is reported as “concentration-dependently inhibited”. Also, the “Imax (%), Chemotaxis” value in test [1] (setting [2]) was 101 ± 4%. Besides, the “induction of migration of Jurkat cells (agonism)” value in test [1] (test compound in lower compartment) is on record as “unable to induce any significant migration”.
